# Data published in the domain aggregation screens of Martell et al. (2025).
# Assay: soluble fraction after stress (log2 fold change); higher = more stays soluble; pooled small domains, quantitative proteomics
# Settings: stress: 75 degC
# 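Further: 20 min heating vs room temperature control held 20 min.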
row,Sequence,soluble fraction (log2)
1,HMPDFLAELAARMERDAVTEAQIRQVVAQKGHYPEEVSPAQYHPDFFRQWLFPHWEKIVDVIRSSPEYTP,-0.126
2,HMEKTIQIYDNIIIKDFAEKMEVSPSQVITKLIGLGVMANLNQPIDINSAVIVGKEFGFNVESM,-1.29
3,HMGDVATVKLDNNGLLNMRKSDARGADIVARIPNGTVVQVLNRETEWTQVRYDGKEGYVMSSFLQFAE,-0.047
4,HMPVSVAEQKQILAEALQERGHATFRELIENADNRMIVVGRFLALLELYRDGTVRFEQERALGELTIHWEE,-2.07
5,HMGASIQITVNNTPVMLKNKTHYTLVDVLDFYPFDLSKMGGTELYTAINGVKSGFTDPVHANDSIEIYWI,-2.49
6,HMEDQLDSLKDIIYDYLENNELYYNDLQEFKKIIIENMEFIHPNLNHKLIDNNFFKLINFKLEYNF,-0.152
7,HMSGYAIVNNQPGRTLNLRNSPSQSNNIIGQIPSGTRLQLISRGETWSEVIFQTTRGFVMSSFLRFET,-2.38
8,HMGPPAVGSKLQDARKAQQLSLDELSKRAGVSKSMLSEVERNQANPTVGVLWRLATALGISLTDLLG,-1.11
9,HMAAVSTDEEFAALGIPAEWIPVLKSNGFQTVESLKKVAPGALFNQLGGLRKKNKLEIAMPSLDQVKAWLA,0.333
10,HMFIEPPSLEELERRLRGRGTETDDVVDMRMRTALVELSQKMEYDYRLVNDDLDEATRQLVAYVNEIAEQ,-0.0555
11,HMLDTPLTARELDVLYLMRQRMSAKEIAKQLGIATMTVNRHAANLYRKLGVNTRWDAVYRAEEVGILPP,-1.45
12,HMRADRLISMLMLLQARGKITAEELAVELGVSQRTIYRDIEALSFAGVPVYAERGPGGGIGLLEPY,-1.73
13,HMLSVLKNVDVNSLSDDKIKTYWQQIQKSGYTLDEVEVLAEAQGISPLKIAAFKRRVQSLQQSLQT,0.311
14,HMTELVIPDYFSKALAKNKKAKQVFEAFAYSHRKEYLQWITEAKTEETRNKRMATAIEWIAEGKGRNWKYA,-3.45
15,HMNPMRYLVVPSQETETWKEYLVSKEWLERKYRIETEGDNRAIPLSNLFPKIVPIELSNLEIIEKEAFS,-0.694
16,HMYSRQRDLILKALRENVVHPTADFIYTVLKEKEPNLSLATVYRNLNLLANEGIIRKIEGLDGVAHFDH,-1.85
17,HMGPRKAGSEATRQKILDAAEILFAERGFHSVSVRDITTEAGVDVALINYHFGSKQLLFETVFMRR,-0.32
18,HMKIKLQATEQQRKTLDELYVQLKKLEPTSKEDLSLLYRLENPHLVSKQEAQGLISIAIGRVGSLAIEQQ,-0.44
19,HMAEQEELDAIRPDLDGQEIMDILGIKPGREVGAARNFLLELRLDEGPLGYDEAVSRLLTWWAERT,-0.0583
20,HMAETLRLVGATNLNTLARARHPDDLAARNEFRRAIAQANPALFAGKSKVGSVSLPAGTVLALPPEV,0.0163
21,HMKNSIKLDNFVGMSYDEVISNKEYDFNFVSAFEKTSDYEAGTIIGQTPAAEERVMVGTTVTLTVAQP,0.491
22,HMEILNYVVSDGQSGIRIDRYLSDSNEDLSRSYIQKLLKEQKVTVQGTFVKANYKVQAGDVITVEVPDMA,-0.884
23,HMLEVTQTDVKMYTTSGTPVYAAPDLNSAIVVYLERFVNVTVTGITDNGFYRVNLNGDYYIPGPYLISSV,-3.92
24,HMAQLKYEQIKSYLQAEAVKPESATRMPTVRELMRRFNVSLVTVNRALSELEHAKVIVRRQGAGIVAAQ,-0.662
25,HMSSSMDAIAEIIRSIPRGDHLTAPEVYELAKQRGLKLSLSTVYRTLNKLKVVGDVITVSGDRGLRYESV,-0.336
26,HMQYSIQVNKLLKAMREDVWYTANEILDLLKLKSKETLRKNYLDPAINNKLIILELPDKPTSRNQRYKI,-2.03

row,Sequence,soluble fraction (log2)
1,HMEKRLDYTFGLNKEQLLYLTKSIKDGDFYNVSFIDGTEKKLNRVGSTKEVHKYVNFLMTNDGIVKK,-0.389
2,HMTRYQHLAMLLEKRIAQGLYRNGERLPSVRSLSAEHGVSISTVQQAYYLLEQKQLIIPQSRSGYYVAPH,-4.46
3,HMHMSLTEKYKELTDLAVSAGVQNLNVREQDGVLYVDGDASGAVKQQLWDTYGKLDPDYTSGDLVLNI,0.279
4,HMNGIFEYSDAKKVPSLVEIENAYRRARVNGAEKFAVIINGEYFGYNPQKRGIYKLNDGEYQIL,-0.428
5,HMNLDYKQFQVFNNIETLNTFTNLLSDNKIDFEVENNSKIFDPSFANNDFEKEYIVKIHPNDFEKVY,0.0557
6,HMLKEKETRALANFTNKFFGLDISEDLKPIALSELSKFKKTHKISNLEEFINSFQYDFQNEKILSLLDIFL,-1.34
7,HMAHESYVKEQLLLSLTNHEDPIMQISLIEQLTKMHERNIIHELEKLTVDVQTNEEVKVQAYASLLILS,-0.869
8,HMNLDELGNRIREQRIKQRLKQQDIANALMLSAQAVSKWERGENAPDISVLPDLVKILGVSVDWLLTGP,-0.949
9,HMAPGIGDSKYFSHIYEMKHIDTIIDNDKGDRLIEHFEIQDTPFIFTKHWTSAFGFSKRQQEIITDYLSYF,0.12
10,HMISLNEDQKLAILNEWNQRPDDPPFIKELIELVFPDIPEEAKTGRSRYGIAIKKFLAEKSLQAKV,-0.197
11,HMAVQAESDIIKRAALLRNLGNTSMQLKNIDQAIDFYKQGIKLHPEDAELKYNLSQALRQKSQSNN,0.055
12,HMGQELTPVERTALDIAARDGKVSTRILAQEAGIGLRTASKTLAALAERGLLTWHGTSRRDPQQHYTS,-0.0688
13,HMKTPRKVFTVLIRNTEYDVYDIDGKEHQGYNDTPKTWWLYHSERLPEGMIPPIDSDSWKPYSVGT,-1.27
14,HMVDDELTARRRVNLRRIADELGGAAAVARKTQKSVQQISSMLNGTKSFGSKIARDIEPKLGLPLQSLDKE,0.0147
15,HMNGELSQRQWQILRLIAQGLSNEQMARQLFVAPSTIKTHINHLYAKLGVRTRAEAQAIARQKLMA,-1.23
16,HMDMAYEVVKAFHDLQDYKDVKGGKVYHHYDVGDTYPRQGLDPAPDETRIEELLSSGNAQGVPLIAEV,0.112
17,HMISKRFQIDEDNSNKRIDIFLTQSLDSISRGIVQQLILENKVEVNGGPVKRNYLIKIGDVIDVKIDL,-2.96
18,HMSTTDGIERFLASGAVKGIGRTMAARIVEHFGSRTLTVMESEPERLTEVAGIGRKKAESIAASYAELS,-0.247
19,HMDTSAHEVLSAIRSIIEDEDKRHPLSDEAITSRLSQQGYDIARRTVAKYRERLGLPVARLRRE,-0.26
20,HMEWTVEKQAAATLNAWMRKNSEMTSEKKVAVAAGIGPATVNRIMKAEVSTTIGVLSSLARAFGHEAYEMI,-0.0249
21,HMDVSLVEQTQRDILEYISKNNSNAQLPKEQEFVGLLGVSRVVVREALSRLRALGIIETKRKKGTVVVVPE,-1.09
22,HMRIDVWLAENGFAPSRQKAQDLIAAGRVFQTDPSGRRQKVSKASAAVDPALSPKIEVIPDPE,-0.0608
23,HMDAQNLQDQLFGFLKANPTQAYPAQTLADGLRLDDANAFTKVVQALAALERGGKVKVNEEGAFQYDAEK,0.43
24,HMWQKGEPAITGLKRISKPGLRIYSKNDELPIVYGNRGIAVISTNKGVMTGIEAKRSGVGGEVLFYV,-0.112
25,HMESGNLIFTNAPIADVVNAIETRYGKKLQASNQTSDLQFTGIFKNTDEFSTVVKTIEIALGLQFEV,-1.67
26,HMDQAEDVLSIPVDALMRGNQVYIKDDTVTEQQGPIPAGFKAVEVETGLISDSYVEIKSGLSEGDTVYVAE,0.129

row,Sequence,soluble fraction (log2)
1,HMVLVEEYDTKDSASTFKIGYYARYNTKYGTPSKVGSYADNQRSGIWTFYTDSLKTYFKYNYSTGLIL,0.0292
2,HMNMKVGPVPANVVPANIKAHVSNNYSKYQIVQMMQNDKGYQVKLSNGTDLYYDKDGNILKTS,0.0129
3,HMDSGFMRTTQSYTVARLAEIFRLSGEDYLAVLREYDGWYQDLTSTKDLIRKGSDVPVPEGV,-1.67
4,HMSSLSGVRRTLLDSLGMPPDASDEELADRREELRGSLDTAPQARRKWIEQQLARIDAITALDASG,0.106
5,HMPQISQDDLMEAGLIVGKEAKQRRIKLGEILGIGYVNAKQLPKRLQLFQVAKSDFEQAVQQIDG,-0.218
6,HMNLLQAHLLRLESAALLAEVREVDRQLSRWLHPLTPQSDVAIIDERNWEAAVARLTELGVHIEEGRW,-3.05
7,HMDDPTVILFDPKNGQRKIVKWKAGLTLYSARRSAGISSAAEATIQRAGKSLSGRTATALEPGDVIRW,-1.74
8,HMDAPIIRLLNSLVQRAVTTTASDIHIEPFEGETKVRMRIDGVIIDYVTLQRALHQPLIARIKIMSNLD,-0.15
9,HMSKNYYEILGVTPDVELSQLKAVYRRLVRKYHPDINPDGELIFKDITEAYEVLSDEKQRKQYDMINGF,-0.596
10,HMSMDPYTVLGVNKSSTDSQIKNAYKNLAKQHHPDRGGNEAKFKEISTAYEQIKTAEKRQQYDMSQQF,0.604
11,HMEEAQWEFKWENTDSAEIHGPHSSSEMLKWQENSFFAKGVYVRKVGGDTTDFTDGKRIDFDLY,-0.705
12,HMKSKNRLTKSYLDSIPGVGRKRKSILLRYFGSIDQIKRASSEDIANVPGIGKITSDLVYNYFNQ,-0.811
13,HMSSVEVWINGKSSGLTSDNRAQILQQLPAESIERIEVIDNPSAKFSAEGSAGIINIVLKKD,0.195
14,HMHDAKTQLQEEAARRGLPAPVYTRIGQEGPDHAPRFRVRADVGPHQAEAVAGSLKLAQAEAARAILRQMP,0.132
15,HMEPKQIEVPNLVGISSAAARQTLSALGLHAVVKDSIWSETERIDTVLEQNPAGGALIKPEGTVYLRVSR,-0.0959
16,HMDPSVTGLLTRLGISPQTAQELAGQYEEPYILEKIAIVEAHPEYVKNAAGFVITALQEDWKD,-0.591
17,HMFMSKTAMVAIISEADKYGLFNIPEGLSVEKTADEIFEGHIEVDFDKLKNELDFVYKNEALEKQFQEN,-0.852
18,HMFLPGETFDVKIVKIGEGENQGVGYLDDGTMIVIENGRDHLNELARVIVTRVLQNSAGQMIFSDYEE,-2.21
19,HMANTLDPMDLKQIISLHLDGFSNRKIGATLGISRNTVNTYMRLFSVSDYALKELLTLDNATLDKLFPS,-2.06
20,HMETVMYLRQIKRPQGIYLAIQESYYDSSKKQSRTRTIESIGYLDNLRKEYEDPIAFFSQKAAAMTSEKKK,-1.55
21,HMDATIGGFKITDSAIYSGVKNNVNAGVRGTYIDKDGQIAFGDSNSYLKYYKDTDGKWKLEVSASSVKF,0.454
22,HMQQIQILPDGKIKLPDLSGTNMREAIEILHKGGLRMKPYGSGNAYQQKPAAGETVASGTTVEVLSL,0.151
23,HMGLIDNLTRIMEKKNISAYQLEKAGIVKQTTFTSWKKGTQPALDKIIKIMQYIEVTPNELFGY,-2.95
24,HMNSLQLGSRGPTVSALQAKLNTMLVPSPRLVADGSFGPKTAQAVKAFQQMKRLVADGVVGPKTAAALGLS,-0.156
